In data set [1] the target is T1, KAE1 mutant-2;BUD32;CGI121;PCC1 (Arabidopsis thaliana;Arabidopsis …, UniProt O49653;Q94K14;Q6NMZ4;Q8GWD7 1-353;1-226;1-172;1-96, G43E;F44R;L45K;P46R;R47D;E48K|||).
T1 sequence 1: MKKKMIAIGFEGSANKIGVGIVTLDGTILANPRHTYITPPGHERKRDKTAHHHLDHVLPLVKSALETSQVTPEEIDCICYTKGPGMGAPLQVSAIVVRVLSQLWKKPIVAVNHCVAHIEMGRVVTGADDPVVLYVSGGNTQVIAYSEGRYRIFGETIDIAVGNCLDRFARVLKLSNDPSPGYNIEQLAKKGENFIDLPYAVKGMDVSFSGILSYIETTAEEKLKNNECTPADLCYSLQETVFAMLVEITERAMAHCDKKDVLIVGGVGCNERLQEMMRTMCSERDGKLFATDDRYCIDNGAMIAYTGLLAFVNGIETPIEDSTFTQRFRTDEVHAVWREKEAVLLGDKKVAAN
T1 sequence 2: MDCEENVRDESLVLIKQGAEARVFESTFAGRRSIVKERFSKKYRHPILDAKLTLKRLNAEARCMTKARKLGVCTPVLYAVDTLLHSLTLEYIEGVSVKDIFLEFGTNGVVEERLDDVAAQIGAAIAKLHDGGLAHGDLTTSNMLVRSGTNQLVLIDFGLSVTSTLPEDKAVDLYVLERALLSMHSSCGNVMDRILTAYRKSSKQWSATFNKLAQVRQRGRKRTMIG
T1 sequence 3: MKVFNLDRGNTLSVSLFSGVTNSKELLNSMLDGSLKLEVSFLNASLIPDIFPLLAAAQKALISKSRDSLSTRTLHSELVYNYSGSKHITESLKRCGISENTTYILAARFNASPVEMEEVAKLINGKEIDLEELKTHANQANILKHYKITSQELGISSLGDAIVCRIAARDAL
T1 sequence 4: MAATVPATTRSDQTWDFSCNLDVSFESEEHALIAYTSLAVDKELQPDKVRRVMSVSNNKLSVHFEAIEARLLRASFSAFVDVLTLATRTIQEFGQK
Description: EMSA; conflicts with MST; MST: 20 mM PBS pH 7.5, 300 mM NaCl, 0.05% Tween 20, 25 C, 50 nM RNA; EMSA: 20 mM Tris-HCl pH 7.5, 300 mM NaCl, 5 mM b-mercaptoethanol, 20% glycerol, agarose gel in Tris-glycine pH 8.0 (8.5 for FAM-RNA), 4 C. The settings on record: protein: recombinant;recombinant;recombinant;recombinant; tags: ;none (6His on partner CGI121);6His (C-term);6His (C-term); chain copies: 2;2;2;2; label: 5' 6-FAM; tRNA cloverleaf.

For data set [2], the target named is T2, KAE1;BUD32 K51E;CGI121;PCC1 (Arabidopsis thaliana;Arabidopsis …, UniProt O49653;Q94K14;Q6NMZ4;Q8GWD7 1-353;1-226;1-172;1-96, |K51E||).
T2 sequence 1: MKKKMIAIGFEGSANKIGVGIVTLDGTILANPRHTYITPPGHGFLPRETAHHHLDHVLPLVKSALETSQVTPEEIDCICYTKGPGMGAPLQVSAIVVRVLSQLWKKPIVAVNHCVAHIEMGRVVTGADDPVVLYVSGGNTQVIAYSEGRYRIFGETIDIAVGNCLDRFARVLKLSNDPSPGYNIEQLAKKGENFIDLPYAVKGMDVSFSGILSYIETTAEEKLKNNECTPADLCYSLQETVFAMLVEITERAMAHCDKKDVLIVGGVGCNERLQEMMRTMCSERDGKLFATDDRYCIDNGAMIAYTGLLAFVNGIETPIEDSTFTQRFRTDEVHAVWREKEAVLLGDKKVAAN
T2 sequence 2: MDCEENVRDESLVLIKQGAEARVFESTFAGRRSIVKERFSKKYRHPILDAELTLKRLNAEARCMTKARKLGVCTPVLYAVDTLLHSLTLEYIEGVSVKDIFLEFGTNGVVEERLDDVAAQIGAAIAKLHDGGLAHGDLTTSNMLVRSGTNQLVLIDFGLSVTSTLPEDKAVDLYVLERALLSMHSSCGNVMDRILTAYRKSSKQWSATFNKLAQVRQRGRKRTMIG
T2 sequence 3: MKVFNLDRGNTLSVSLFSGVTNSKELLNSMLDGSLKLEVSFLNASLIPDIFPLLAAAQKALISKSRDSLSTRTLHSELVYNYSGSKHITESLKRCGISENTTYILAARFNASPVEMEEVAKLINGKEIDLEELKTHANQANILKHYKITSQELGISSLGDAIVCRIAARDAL
T2 sequence 4: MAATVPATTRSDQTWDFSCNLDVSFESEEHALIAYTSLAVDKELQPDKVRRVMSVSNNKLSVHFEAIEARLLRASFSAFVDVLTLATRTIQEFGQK
Description: MST; MST: 20 mM PBS pH 7.5, 300 mM NaCl, 0.05% Tween 20, 25 C, 50 nM RNA; EMSA: 20 mM Tris-HCl pH 7.5, 300 mM NaCl, 5 mM b-mercaptoethanol, 20% glycerol, agarose gel in Tris-glycine pH 8.0 (8.5 for FAM-RNA), 4 C. Conditions: protein: recombinant;recombinant;recombinant;recombinant; tags: none (6His on partner PCC1);;6His (C-term);6His (C-term); chain copies: 2;2;2;2; label: 5' 6-FAM; tRNA cloverleaf.

For data set [3], the target named is T3, KAE1;BUD32 S163R;CGI121;PCC1 (Arabidopsis thaliana;Arabidopsis …, UniProt O49653;Q94K14;Q6NMZ4;Q8GWD7 1-353;1-226;1-172;1-96, |S163R||).
T3 sequence 1: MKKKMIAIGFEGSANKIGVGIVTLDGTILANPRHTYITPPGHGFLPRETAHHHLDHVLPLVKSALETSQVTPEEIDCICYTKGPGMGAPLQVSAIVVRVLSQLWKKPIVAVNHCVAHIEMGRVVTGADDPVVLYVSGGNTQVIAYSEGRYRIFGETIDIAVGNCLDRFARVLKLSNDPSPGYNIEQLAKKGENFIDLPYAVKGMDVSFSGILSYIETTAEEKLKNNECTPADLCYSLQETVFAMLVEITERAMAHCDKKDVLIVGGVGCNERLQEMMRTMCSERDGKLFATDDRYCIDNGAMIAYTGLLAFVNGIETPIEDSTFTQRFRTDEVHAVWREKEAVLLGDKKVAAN
T3 sequence 2: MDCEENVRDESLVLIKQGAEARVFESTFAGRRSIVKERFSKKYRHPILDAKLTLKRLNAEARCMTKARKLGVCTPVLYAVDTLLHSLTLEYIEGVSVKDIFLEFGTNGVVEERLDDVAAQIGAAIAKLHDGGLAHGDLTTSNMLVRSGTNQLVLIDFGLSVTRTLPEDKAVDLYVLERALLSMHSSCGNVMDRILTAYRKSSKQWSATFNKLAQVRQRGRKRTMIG
T3 sequence 3: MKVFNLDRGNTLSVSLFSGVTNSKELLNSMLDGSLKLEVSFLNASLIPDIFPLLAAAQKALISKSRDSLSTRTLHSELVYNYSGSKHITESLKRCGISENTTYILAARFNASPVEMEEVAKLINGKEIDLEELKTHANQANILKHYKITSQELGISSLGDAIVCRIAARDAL
T3 sequence 4: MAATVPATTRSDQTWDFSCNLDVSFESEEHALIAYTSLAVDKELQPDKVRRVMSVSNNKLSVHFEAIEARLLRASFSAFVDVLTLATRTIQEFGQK
The data set is described as above. Conditions: protein: recombinant;recombinant;recombinant;recombinant; tags: none (6His on partner PCC1);;6His (C-term);6His (C-term); chain copies: 2;2;2;2; label: 5' 6-FAM; tRNA cloverleaf.

The target in data set [4] is T4, KAE1;BUD32;PCC1 (Arabidopsis thaliana;Arabidopsis …, UniProt O49653;Q94K14;Q8GWD7 1-353;1-226;1-96, ||).
T4 sequence 1: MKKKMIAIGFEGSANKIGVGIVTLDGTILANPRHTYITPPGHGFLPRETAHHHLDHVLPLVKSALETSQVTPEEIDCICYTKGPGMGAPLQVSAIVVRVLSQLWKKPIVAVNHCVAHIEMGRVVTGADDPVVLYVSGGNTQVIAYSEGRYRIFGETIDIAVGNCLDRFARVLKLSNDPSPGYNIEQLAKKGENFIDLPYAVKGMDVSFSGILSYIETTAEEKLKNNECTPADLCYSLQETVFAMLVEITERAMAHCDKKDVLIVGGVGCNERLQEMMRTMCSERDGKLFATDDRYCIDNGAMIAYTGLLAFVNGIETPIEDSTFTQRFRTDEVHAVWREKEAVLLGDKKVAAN
T4 sequence 2: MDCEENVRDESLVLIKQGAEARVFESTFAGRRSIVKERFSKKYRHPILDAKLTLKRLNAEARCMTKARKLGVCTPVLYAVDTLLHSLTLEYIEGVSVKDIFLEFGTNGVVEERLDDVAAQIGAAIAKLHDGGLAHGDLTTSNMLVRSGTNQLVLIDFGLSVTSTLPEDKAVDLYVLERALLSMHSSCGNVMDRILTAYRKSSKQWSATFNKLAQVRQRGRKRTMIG
T4 sequence 3: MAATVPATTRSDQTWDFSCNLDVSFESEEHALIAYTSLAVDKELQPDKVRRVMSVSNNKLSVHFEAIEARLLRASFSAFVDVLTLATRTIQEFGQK
Described as above. Conditions: protein: recombinant;recombinant;recombinant; tags: none (6His on partner PCC1);none (6His on partner CGI121);6His (C-term); chain copies: 2;2;2; label: 5' 6-FAM; tRNA cloverleaf.

B1: 5'-6FAM-tRNAArgCCU (structured_RNA)
RNA: GCGCCUGUAGCUCAGUGGAUAGAGCGUCUGUUUCCUAAGCAGAAGGUCGUAGGUUCGACCCCUACCUGGCGCGCCA
As for B1, the binding result in data set [1] is reported as “binds”. Moreover, the Kd in data set [2] was found to be 29.8 ± 10.7 µM; in data set [3] it was 330 ± 11.1 µM; in data set [4] it was 38 ± 13.6 µM.

These data come from PMC11077089, “Molecular basis of A. thaliana KEOPS complex in biosynthesizing tRNA t6A”.
